{
  "source": "patent US20190322724A1",
  "data": [
    {"biological_target": "active 62 kDa MMP-2 (UniProt P08253)", "sequence (P08253 110-660 limits assumed)": "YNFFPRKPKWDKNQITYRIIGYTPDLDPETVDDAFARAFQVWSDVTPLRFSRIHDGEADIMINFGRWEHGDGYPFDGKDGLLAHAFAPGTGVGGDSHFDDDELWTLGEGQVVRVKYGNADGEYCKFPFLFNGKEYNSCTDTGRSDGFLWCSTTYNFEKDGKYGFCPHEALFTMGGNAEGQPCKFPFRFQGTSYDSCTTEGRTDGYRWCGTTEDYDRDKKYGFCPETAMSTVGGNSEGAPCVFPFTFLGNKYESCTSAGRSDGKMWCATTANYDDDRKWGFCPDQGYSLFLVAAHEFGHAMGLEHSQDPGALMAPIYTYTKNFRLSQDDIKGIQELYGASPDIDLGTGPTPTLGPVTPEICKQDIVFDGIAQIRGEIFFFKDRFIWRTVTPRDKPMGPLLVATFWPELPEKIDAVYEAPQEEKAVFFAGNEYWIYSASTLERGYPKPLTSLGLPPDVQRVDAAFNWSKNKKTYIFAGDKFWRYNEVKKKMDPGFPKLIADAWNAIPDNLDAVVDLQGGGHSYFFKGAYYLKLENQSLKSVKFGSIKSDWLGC", "experiment": "fluorometric MMP-2 activity assay, competitive inhibition fit; TIMP-2 0-2.5 nM, substrate 0.83-6.66 µM", "units": {"Ki": "nM"}, "values": [
      {"substance": "TIMP-2 Y90E-His6 (from UniProt P16035 27-220)", "Ki": 0.3},
      {"substance": "TIMP-2 Y90F-His6 (from UniProt P16035 27-220)", "Ki": 1.4},
      {"substance": "wild type human TIMP-2 with C-terminal His6 tag (WT TIMP-2-His6) (from UniProt P16035 27-220)", "Ki": 1.5}
    ]}
  ]
}
